Reference: publication PMC3470543, “Effects of the Missense Mutations in Canine BRCA2 on BRC Repeat 3 Functions and Comparative Analyses between Canine and Human BRC Repeat 3” (PLoS ONE, 2012)
Where a chain is given by its changes, count along the chain named.

B1: Gal4-DBD-fused wild-type canine BRC3 [canine] / VP16 transactivation domain-fused human RAD51 [human] (parent complex)
chain 1: GQNIKDFDTFYLSFQTASRKNIRVSKESLNKARSLLNQKWTEEELNNFSDSLNSELLPGIDIKKTDISNHEVI
chain 2: MAMQMQLEANADTSVEEESFGPQPISRLEQCGINANDVKKLEEAGFHTVEAVAYAPKKELINIKGISEAKADKILAEAAKLVPMGFTTATEFHQRRSEIIQITTGSKELDKLLQGGIETGSITEMFGEFRTGKTQICHTLAVTCQLPIDRGGGEGKAMYIDTEGTFRPERLLAVAERYGLSGSDVLDNVAYARAFNTDHQTQLLYQASAMMVESRYALLIVDSATALYRTDYSGRGELSARQMHLARFLRMLLRLADEFGVAVVITNQVVAQVDGAAMFAADPKKPIGGNIIAHASTTRLYLRKGRGETRICKIYDSPCLPEAEAMFAINADGVGDAKD
B2: Gal4-DBD-fused wild-type canine BRC3 [canine] / VP16 transactivation domain-fused canine RAD51 [canine] (parent complex)
chain 1: B1 chain 1
chain 2: B1 chain 2 with N62S, A76T, A194G

Variants of: B1
Assay: mammalian two-hybrid assay; HeLa cells; luciferase activity determined 48 h after transfection; n = 3; read off a plot
Variant chain 1 GQNIKDFDTFYLSFQPASRKNIRVSKESLNKARSLLNQKWTEEELNNFSDSLNSELLPGIDIKKTDISNHEVI [chain 1 T16P] has a response of ~2.2 Firefly/Renilla.
Variant chain 1 GQNIKDFDTFYLSFQTASRKNIRVSRESLNKARSLLNQKWTEEELNNFSDSLNSELLPGIDIKKTDISNHEVI [chain 1 K26R] has a response of ~34 Firefly/Renilla.

Variants of: B2
Assay: as above
In the case of chain 1 GQNIKDFDTFYLSFQPASRKNIRVSKESLNKARSLLNQKWTEEELNNFSDSLNSELLPGIDIKKTDISNHEVI [chain 1 T16P], the response is reported as ~3.5 Firefly/Renilla.
Work on chain 1 GQNIKDFDTFYLSFQTASRKNIRVSRESLNKARSLLNQKWTEEELNNFSDSLNSELLPGIDIKKTDISNHEVI [chain 1 K26R] yielded a response of ~120 Firefly/Renilla.
